To fix the notation:
T1: human TIM-3 extracellular domain protein with hFc tag (hTIM-3-hFc) (human, UniProt Q8TDQ0 22-200)
T1 construct: not shown: human IgG Fc fragment (hFc) of the pCpC vector
T1 sequence: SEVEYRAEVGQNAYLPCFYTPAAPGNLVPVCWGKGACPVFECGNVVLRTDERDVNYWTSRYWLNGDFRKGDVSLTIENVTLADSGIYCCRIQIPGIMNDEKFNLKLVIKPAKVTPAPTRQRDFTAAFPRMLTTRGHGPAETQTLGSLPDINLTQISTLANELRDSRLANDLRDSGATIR

T2: monkey TIM-3 extracellular domain protein with hFc tag (cTIM-3-hFc) (monkey)
T2 construct: not shown: human IgG Fc fragment (hFc) of the pCpC vector
T2 chain: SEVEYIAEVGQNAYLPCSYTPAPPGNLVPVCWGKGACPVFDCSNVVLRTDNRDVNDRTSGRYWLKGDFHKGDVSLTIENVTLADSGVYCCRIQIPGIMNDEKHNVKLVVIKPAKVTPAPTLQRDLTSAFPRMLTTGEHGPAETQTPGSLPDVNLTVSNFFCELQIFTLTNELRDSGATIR

T3: monkey TIM-3 on CHOK1 stable cell line (CHOK1-cTIM-3) (monkey)
T3 chain: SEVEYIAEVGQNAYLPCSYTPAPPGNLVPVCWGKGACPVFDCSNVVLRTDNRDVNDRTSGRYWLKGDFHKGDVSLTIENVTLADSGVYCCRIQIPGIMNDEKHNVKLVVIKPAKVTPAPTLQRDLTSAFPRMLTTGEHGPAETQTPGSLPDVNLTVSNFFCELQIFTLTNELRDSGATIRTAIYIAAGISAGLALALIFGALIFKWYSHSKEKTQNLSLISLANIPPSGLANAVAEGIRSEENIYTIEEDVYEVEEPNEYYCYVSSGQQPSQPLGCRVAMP

T4: human TIM-3 protein with hFc tag (hTIM-3-hFc protein) (human, UniProt Q8TDQ0 22-200)
T4 construct: also called immunogen 1; human TIM-3 extracellular domain protein; not shown: human IgG Fc fragment (hFc) of the pCpC vector
T4 sequence: T1 sequence

T5: monkey TIM-3 protein with hFc tag (cTIM-3-hFc protein) (monkey; human)
T5 construct: Made in HEK293 cells; also called monkey TIM-3 extracellular domain protein; not shown: human IgG Fc fragment (hFc) of the pCpC vector
T5 chain: T2 chain

T6: murine TIM-3 extracellular domain protein with hFc tag (mTIM-3-hFc) (mouse, UniProt Q8VIM0 29-191)
T6 construct: also called mouse TIM-3 extracellular domain protein; not shown: human IgG Fc fragment (hFc) of the pCpC vector
T6 chain: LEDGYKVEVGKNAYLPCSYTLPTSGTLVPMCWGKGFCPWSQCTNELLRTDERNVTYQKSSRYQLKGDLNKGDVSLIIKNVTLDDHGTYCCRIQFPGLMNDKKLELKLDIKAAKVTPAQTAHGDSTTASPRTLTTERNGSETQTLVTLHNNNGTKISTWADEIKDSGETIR

T7: murine TIM-3 protein with hFc tag (mTIM-3-hFc protein) (mouse; human, UniProt Q8VIM0 29-191)
T7 construct: Made in HEK293 cells; also called mouse TIM-3 extracellular domain protein; not shown: human IgG Fc fragment (hFc) of the pCpC vector
T7 chain: T6 chain

B1: 57F4E5 fully human TIM-3 antibody (human IgG4, kappa) (antibody, V domains shown)
VH: EVQLVESGGGLVQPGGSLRLSCAASGFTFSSYWMSWVRQAPGKGLEWVANIKQDGSEKYYVDSVKGRFTISRDSAKNSLYLQMNSLRAEDTAMYFCARDSNFFDYWGQGTLVTVSS
VL: ETVMTQSPATLSVSPGERATLSCRASQSVSSNLAWYQRKPGQAPRLLIYFSSTRATGIPARFSGSGSGTEFTLTISSLQSEDFAVYYCQQYNNWPLTFGGGTKVEIK
B2: 134H3G6 fully human TIM-3 antibody (human IgG4, kappa) (antibody, V domains shown)
VH: EVQLVESGGGLVQPGGSLRLSCAASGFTFSNSWMTWVRQAPGKGLEWVANIKQAGTEKYYVDSVKGRFTISRDNAKNSLYLQMNSLRAEDTAVYYCNSGSNYFDYWGQGTLVTVSS
VL: B1 VL with T2I, S26R, S28N, V29F, S30Y, R38Q, F50G, S51A
B3: 215A8F2 fully human TIM-3 antibody (human IgG4, kappa) (antibody, V domains shown)
VH: QVQLQQWGAGLLKPSETLSLTCTVYGGSFSGYYWNWIRQPPGKGLEWLGEINHSGSTNYNPSLKRRVTISVDTSKNQFSLKLSSVTAADTAVYYCARVYYYGPFDFWGQGTLVTVSS
VL: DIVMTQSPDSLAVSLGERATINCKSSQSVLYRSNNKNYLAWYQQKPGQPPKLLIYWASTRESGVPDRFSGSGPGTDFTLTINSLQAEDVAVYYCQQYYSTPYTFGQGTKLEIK
B4: 7A4F10 fully human TIM-3 antibody (human IgG4, kappa) (antibody, V domains shown)
VH: EVQLLESGGGLVQPGGSLRLSCAASGFTFRTHLISWVRQAPGKGLEWVAAITGSGGSTYYADSVKGRFIISRDNSKNTLFLQMNSLRAEDTAVYYCAKDGGSGSYDDFWGQGTLVTVSS
VL: ETVLTQSPVTLSLSPGERATLSCRASQSVGSYLAWYQQKPGQAPRLLIYDASNRATGIPARFSGSGSGTDFTLTISSLEPEDFAVYYCQQRSNWPPTFGQGTKVEIK
B5: 57F4E5 (TIM-3 antibody purified from hybridoma, chimeric antibody of Example 2) (antibody, V domains shown)
VH: B1 VH
VL: B1 VL
notes: From hybridoma of Harbour H2L2 transgenic mice: human variable regions, rat constant regions
B6: 134H3G6 (TIM-3 antibody purified from hybridoma, chimeric antibody of Example 2) (antibody, V domains shown)
VH: B2 VH
VL: B1 VL with T2I, S26R, S28N, V29F, S30Y, R38Q, F50G, S51A
notes: as for B5
B7: 39E5H1 (TIM-3 antibody purified from hybridoma, chimeric antibody of Example 2) (antibody, V domains shown)
VH: EVQLVESGGGLVQPGGSLRLSCAASGFTFSSYWMSWVRQAPGKGLEWVANIKRGGSERYYVDSVKGRFTISGDNAKNSVYLQMNSLRAEDTAVYYCARGSNWFDPWGQGTLVTVSS
VL: B1 VL with T10I, S30Y, R38Q, P40L, F50D, S51A, L96I, G100Q, K103R, V104L
notes: as for B5
B8: 18D2H2 (TIM-3 antibody purified from hybridoma, chimeric antibody of Example 2) (antibody, V domains shown)
VH: EVQLVESGGDLVQPGGSLRLSCAASGFTFSTYWMTWVRQAPGRGLEWVANIKQDGSAKYYVDSVKGRFTLSRDDAKNSLYLQMNSLRAEDTAVYYCARGSNWFDYWGQGTLVTVSS
VL: B1 VL with S26N, S28N, S30Y, R38Q, F50D, S51A, I58F
notes: as for B5
B9: 215A8F2 (TIM-3 antibody purified from hybridoma, chimeric antibody of Example 2) (antibody, V domains shown)
VH: B3 VH
VL: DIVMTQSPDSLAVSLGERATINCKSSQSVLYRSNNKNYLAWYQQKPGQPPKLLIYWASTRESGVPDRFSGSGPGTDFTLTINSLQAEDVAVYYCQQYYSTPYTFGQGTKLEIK
notes: as for B5
B10: 34B6D8 (TIM-3 antibody purified from hybridoma, chimeric antibody of Example 2) (antibody, V domains shown)
VH: B7 VH with S31T, S35T, G44R, R53Q, S56G, E57D, R58K, G72T, V79L
VL: EIVMTQSPATLSMSPGERATLSCRASQSVYDNLAWYQQKPGQAPRLLIYGASTRATGIPARFSGSGSGTEFTLTISSLQSEDFALYYCQQYTHWPITFGQGTRLEIK
notes: as for B5
B11: 7A4F10 (TIM-3 antibody purified from hybridoma, chimeric antibody of Example 2) (antibody, V domains shown)
VH: B4 VH
VL: B4 VL
notes: as for B5

Substitutions are numbered along the chain they refer to.

In one experiment the target is T1, human TIM-3 extracellular domain …. Briefly: ELISA, coated human TIM-3 ECD protein, 66.667 nM antibody. Background: An ELISA detects its analyte on a solid surface through an enzyme-linked reagent.
Regarding B1, the OD450 came to 3.06.
Still for that read-out and setting: next, B2: 2.77; B3: 3.08; B4: 3.02.

The target of the next experiment is T2, monkey TIM-3 extracellular domain …. The experiment can be described thus: ELISA, coated monkey TIM-3 ECD protein, 0 nM antibody.
For the molecule B1, the OD450 came out at 0.16.
Same read-out and setting: next, B2: 0.13.
Still for that read-out and setting: next, B3: 0.13; B4: 0.13.

Another experiment addresses T3, monkey TIM-3 on CHOK1 stable cell line …. Briefly: FACS, CHOK1-cTIM-3 cells, 0.32 nM antibody. In general terms: In flow cytometry, cells or beads pass a laser one at a time.
B1 gave a Mean fluorescence intensity of 80.6.
The molecule B2 gave a Mean fluorescence intensity of 134.
With B3, the Mean fluorescence intensity is 92.5.
With B4, the Mean fluorescence intensity worked out at 52.7.

For another experiment the target is unchanged. Briefly: FACS, CHOK1-cTIM-3 cells, 0 nM antibody.
The molecule B1 gave a Mean fluorescence intensity of 2.9.
B2 gave a Mean fluorescence intensity of 2.9.
For the molecule B3, the Mean fluorescence intensity worked out at 2.8.
In turn, B4 displayed a Mean fluorescence intensity of 2.8.

In a further experiment the target is T4, human TIM-3 protein with hFc tag …. The experiment can be described thus: ELISA, coated hTIM-3-hFc; antibody 6.6667 nM. From the text:
(§1) The amino acid sequence 22-200 of the extracellular domain of the human TIM-3 protein described in the step of Example 1 (as shown in SEQ ID NO. 71 in the sequence listing) was cloned into a pCpC vector having a human IgG Fc fragment (hFc), and transfected into HEK293 cells. The cell culture medium was collected, and purified to obtain the human TIM-3 protein with hFc tag (herein referred to as hTIM-3-hFc protein). The amino acid sequence 22-201 of the extracellular domain of the monkey TIM-3 protein (as shown in SEQ ID NO. 72 in the sequence listing) was cloned into a pCpC vector having a human IgG Fc fragment (hFc), and transfected into HEK293 cells. The cell culture medium was collected, and purified to obtain the monkey TIM-3 protein with hFc tag (herein referred to as cTIM-3-hFc protein). […] The cell culture medium was collected, and purified to obtain the murine TIM-3 protein with hFc tag (herein referred to as mTIM-3-hFc protein). Purified human, monkey, and mouse TIM-3 extracellular domain proteins (hTIM-3-hFc, cTIM-3-hFc, and mTIM-3-hFc) were diluted with PBS to a final concentration of 1.0 μg/ml and then added to a 96-well ELISA plate with 100 μl per well. The plate was sealed with plastic film and incubated overnight at 4° C. The plate was washed 4 times with the plate washing solution (PBS+0.01% Tween20) on the next day, and added with the blocking solution (PBS+0.01% Tween20+1% BSA) and sealed at room temperature for 1-2 hours. The blocking solution was poured out. 50-100 μl of the antibody sample to be tested was added to each well. The plate was incubated at 37° C. for 1-2 hours, and washed 2-3 times with plate washing solution (PBS+0. 01% Tween20). HRP (horseradish peroxidase) labeled secondary antibody was added. The plate was incubated at 37° C. for 1-2 hours, and washed 2-3 times with plate washing solution (PBS+0. 01% Tween20). […] of TMB substrate was added to each well. After incubated at room temperature for 15-30 minutes, the plate was added with […] stop solution (1.0N HCl) to each well. An ELISA plate reader (TiterMax 384plus, Molecular Device) was used to read the A450 nm value.
As to B5, the OD450 is 3.29.
Take B6: the OD450 amounted to 2.57.
Molecule B7 returned an OD450 of 3.34.
Turning to B8, the OD450 came to 2.86.
Regarding B9, the OD450 amounted to 3.15.
Still for that read-out and setting: next, B10: 3.4; B11: 2.92.

The next experiment deals with T5, monkey TIM-3 protein with hFc tag …. Briefly: ELISA, coated cTIM-3-hFc; antibody 0.0007 nM.
Source text: as §1
B5 displayed an OD450 of 0.64.
B6 showed an OD450 of 0.55.
Still for that read-out and setting: for B7 the value was 0.61; for B8, 0.54.
For B9, the OD450 was 0.55.
Turning to B10, the OD450 amounted to 0.61.
Regarding B11, the OD450 was found to be 0.55.

For the next experiment, the target named is T1, human TIM-3 extracellular domain …. Briefly: ELISA, coated human TIM-3 ECD protein, 0 nM antibody.
Take B1: the OD450 is 0.08.
Same read-out and setting: next, B2: 0.08; B3: 0.08.
On the same count and under the same terms, next, B4: 0.08.

For a further experiment, the target named is T2, monkey TIM-3 extracellular domain …. Briefly: ELISA, coated monkey TIM-3 ECD protein, 0.6667 nM antibody.
The molecule B1 came in with an OD450 of 3.15.
B2 returned an OD450 of 3.1.
Still for that read-out and setting: next, B3: 3.05; B4: 2.46.

Another experiment concerns the target T6, murine TIM-3 extracellular domain …. Briefly: ELISA, coated mouse TIM-3 ECD protein, 0.0667 nM antibody.
Molecule B1 returned an OD450 of 0.33.
Regarding B2, the OD450 is 0.21.
B3 had an OD450 of 0.31.
Still for that read-out and setting: for B4 the value was 0.22.

For another experiment, the target named is T7, murine TIM-3 protein with hFc tag …. The experiment can be described thus: ELISA, coated mTIM-3-hFc; antibody 0.0007 nM.
Source text: as §1
B5: the OD450 stood at 0.67.
The molecule B6 showed an OD450 of 0.62.
Still for that read-out and setting: for B7 the value was 0.63; for B8, 0.64; for B9, 0.67.
Still for that read-out and setting: next, B10: 0.65.
Consider B11, for which the OD450 worked out at 0.64.

The values are drawn from US20220033501A1 (SHANGHAI PHARMAEXPLORER, published 2022).
